Biological target: the molecule itself
Test: crystal structure

B1: ATP synthase c-subunit of Mycobacterium phlei (Fo rotor ring, c9 ring) (natural protein, UniProt A0A5N5V239 1-86, looked up)
chain: MELDPNALITAGALIGGGLIMGGGAIGAGIGDGIAGNALISGIARQPEAQGRLFTPFFITVGLVEAAYFINLAFMALFVFATPGLQ
stoichiometry N: 9
